PMC9435597, “Medical contrast agents as promising tools for biomacromolecular SAXS experiments” (Acta Crystallographica. Section D, Structural Biology, 2022)

Molecular target: the molecule itself
Experiment: SAXS; P1 in solution, 20 mM Tris pH 7.5, 150 mM NaCl, 15°C, flow mode, SWING beamline; contrast series with Gd-HPDO3A (up to 1341 mM) or iohexol (up to 618 mM); CRYSOL fits with a hexameric atomic model, linearity of I(0)^1/2, Rg

B1: protease 1 from Pyrococcus horikoshii (enzyme)
chain: MKVLFLTANEFEDVELIYPYHRLKEEGHEVYIASFERGTITGKHGYSVKVDLTFDKVNPEEFDALVLPGGRAPERVRLNEKAVSIARKMFSEGKPVASICHGPQILISAGVLRGRKGTSYPGIKDDMINAGVEWVDAEVVVDGNWVSSRVPADLYAWMREFVKLLK
notes: protease 1 (P1) from Pyrococcus horikoshii; Hexamer; also called P1; source: purified following existing protocols (Engilberge et al., 2017)
Question: Which “stoichiometry N” value does the source give for B1 here?
Answer: 6
